Results on one substance are retold here after US20150266922.

The target in this data set is SUMO1 (UniProt P63165).
SUMO1, sequence (P63165 1-97): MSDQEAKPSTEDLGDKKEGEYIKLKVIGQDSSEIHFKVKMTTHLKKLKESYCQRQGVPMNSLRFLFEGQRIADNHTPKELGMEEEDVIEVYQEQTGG

Consider recombinant DPP9V285A (insect cells), for which the “hydrolysis of GP-AMC by DPP9 V285A” value was “the SUBA mutant DPP9V285A was not activated by SUMO1”.
